# Measured values taken from the nanobody polyreactivity screen of Harvey et al. (2022).
# Test: yeast display, Sf9 membrane polyspecificity reagent, FACS + sequencing; frameworks hold sequencing errors
# Outline: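 In a synthetic yeast display library (Saccharomyces cerevisiae BJ5465), nanobody expression was induced with galactose for 36–48 hours. FACS gates were set low and high (top ~1%) using anti-HA fluorescence for expression and streptavidin fluorescence for binding of the Sf9 membrane reagent. Each polyreactivity label is drawn from the gate of origin.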
row,Sequence,polyreactivity (PSR sort gate)
1,QVQLVESGGGLVHAGGSLRLSCSASGSTFGPYAMGWYRQAPGKERELVAAISSRGARTYYADSVKGRFTISRDNAKNTVYLQMNSLKPEDTAVYYCANTYHGTAYDYWGQGTQVTVSS,high polyreactivity
2,QVQLVESGGGLVQAGGSLRLSCAASGFTFDKYAMGWYRQAPGKERELVAAISSSGGSTYYADSVKGRFTISRDNAKNTVYLQMNSLKPEDTAVYYCATGRIRWYARYDYWGHGTQVTVSS,high polyreactivity
3,QVQLVESGGGLVQAGGSLRLSCAASGSIFKWYAMGWYRQAPGKERELVAAITRGGSTNYADSVKGRFTISRDNAKNTVYLQMNSLKPEDTAVYYCNAVYTYRSGFGYWGQGTQVTVSS,low polyreactivity
4,QVQLVESGGGLVQAGGSLRLSCAASGSTYYWYMGWYRQAPGKERELVAAITSGGRTYYADSVKGRFTISRDNAKNTVYLQMNSLKPEDTAVYYCARPYSRAYDYWGQGTQVTVSS,high polyreactivity
5,QVQLVESGGGLVQAGGSLRLSCAASGRTFSVNAMGWYRPAPGKERELVAAISSGGGTNYADSVKGRFTISRDNAKNTVYLQMNSLKPEDTAVYYCAARTFGYPSHRQEMEYWGQGTQVTVSS,low polyreactivity
6,QVQLVESGGGLVQAGGSLRLSCGASGSIFNKYAIGWYRQAPGKERELVAAISVSGTRTYYADSVKGRFTISRDNAKNTCYLQMNSLKPEDTAVYYCAATRLDSTGSMYYYWGQGTQVTVSS,high polyreactivity
7,QVQLVESGGGLDQAGGSLRLSCAASGRTFAHNAMGWYRQAPGKERELVAAITWSGGTTYYADSVKGRFTISRDNAKNTVYLQMNSLKPEDTAVYYCNTYSYLADPKYDYWGQGTQVTVSS,low polyreactivity
8,QVQLVESGGGLVQAGGSLRLSCAASGNIFAWYAMGGYRQAPGKERELVADISSRGGSTYYADSVKGRFTISRDNAKNTVYLQMNSLKPEDTAVYYCAAVWYWTQDYDYWGQGTQVTVSS,low polyreactivity
9,QVQLVESCGGLVQAGGRLRLSCAASGRIFYSYAMGWSRQAPGKERELVAAITVSGGSTFYADSVKGRFTISRDNAKNTVYLQMNSLKPEDTAVYYCNAPKRYSTIGYDYWGQGSQVTVSS,high polyreactivity
10,QVQLVESGGGLVQAGGSLRLSCAASGFTFRAYAMGWYRQAPGKERELVAGITRSGGSTHYADSVKGRFTISRDNAKNTVYLQMNSLKPEDTAVYYCNARYPYRGKRKPPDYWGQGTQVTVSS,high polyreactivity
11,QVQLVESGGGLVQAGGSIRLSCAASGFIFYVYAMGRSRQAPGKERELVAAISGGGDSTYYADSVKGRFTTSRDNAKNTVYLQMNSLKPEDTAVYYCATRRYPEVVNGESGYWGQGTQVTVSS,low polyreactivity
12,QVQLQESGGGLVQAGGSLRLSCAASGCISVYTPMGWYRQAPGKERVLVAGINICANTYYADSVKGRFTISRDNAKNTLYLQMNSLKPEDTAVYYCAARRRPGGRYKSRVWYDYWGQGTQVTVSS,high polyreactivity
13,QVQLVESGGGLVQAGGSLRLSCAASGFIFPRNVMGWYRQAPGKERELVAAISRSGGSTYYADSVKGRFTISPDNVKNTVFLQMNSLIPEDTAVYYFAKRTFYNGEYWGQGTQVTVSS,low polyreactivity
14,QVQLVESGGGLVQAGGSLRLSCAASGLTFLLNAMGWYRQAPGKERELVAAITWRGGRTYYADSVKGRFTISRDNAKNTVYLQMNSLKPEDTAVYYCAAVPVVQSQPTYYYWGQGTQVTVSS,high polyreactivity
15,QVQLEESGGGLVQAGGSLRLSCAASGSTFGYNAMGWYRQAPGKERELVAAITSGGRTKYADSVKGRFTISRDNAKNTVYLQMNSLKPEDTAVYYCATDQSYRFLFYRAYDMDYWGQGTQVTVSS,high polyreactivity
16,QVQLVESGGGLVQAGGSLRLSCAASGNIFRSYMGWYRQAPGKEREFVAGITWRGGNTYYADSVKGRFTISRDNAKNTVYLQMNSLKPEDTAVYYCAAEIFVYYRWYDYWGQGTQVTVSS,high polyreactivity
17,QVQLVESGGGLVQAGGSLRLSCAASGIIFDSYAMGWYRQAPGKERELVAAITSDSGRTYYADSVKGRFTISRDNAKNTVYLQMNSLKPEDTAVYYCAKRWDGPYDYWGHGTQVTVSS,low polyreactivity
18,QVQLVESGGGLVQAGGSLRISCAASGRIFQYYSMGWYRQAPGKERELLAAMSSRGGSTTYADSVKGRFTISRDNAKNTVYLQMNRLKPEDTAVYYCASDWYYYPQYRQRYYYWGQGTQVTVSS,high polyreactivity
19,QVQLVETGGGLVQAGGSLRLSCAASGRIFEIYAMGWYRQAPGKERELVAAIDESGGSTYYADSVKGRFTISRDNGKNTVYLQMNSLKPEDTAVYYCATDDTWTITYGWYWFTYEYWGQCTQVTVSS,low polyreactivity
20,QVQLVESGGGLVQAGGSLRLTCADTGNIFVRNAMGWYRQAPGKERELVADISTGADTNYADSVKGRFTISRDNAKNTFYLQKNSLKPEDTAVYYCAAAAEVGEIGYWPMVYWGQVTQVTVSS,high polyreactivity
21,QVQLVESGGGLVQAGGSLRLSCAASGRTFSRYAIGWYRQAPGKERDLVAAITRTGGSTYYADSVKGRFTISRDNAKNTVYLQMNSLKPEDTAVYYCAAAYPGVWYDYNYWGQGTQVTVSS,high polyreactivity
22,QVQLVESGGRLVQAGGSLRLSCAASGGTFPTNAMGWYTQAPGKERELVAAITSSGVRTYYADSVKGRFTISRDNAKNTVYLQMNSLKPEDTAVYYCNAVTRYVRLTDDDYWGQGSQVTVSS,high polyreactivity

row,Sequence,polyreactivity (PSR sort gate)
1,QVQLVESGGGLFQAGGSLRLSCAPSGRTFSHYAMGWYRQAPGKERELVAAISWSGGRTYYADSVKGRFTISRYNAKNTVYLQMNSLKPEDTAVYYCATDKVSNRRYDYWGQGTQVTVSS,high polyreactivity
2,QFQLVETGGGLVQAGGSLRLSCAASGITFVRYAMGWYSQAPGKERELVAGISRGGSTNYADSVKGRFTISRDNAKNTVYLQMNSLKPEDTAVYYCNRANSFFDTHTLQFYYWGQGTQVTVSS,high polyreactivity
3,QVQLVESGGALVQAGGSLRLSCAASGRIFWHNAMGWYRQAPGKERELVAAISSRGGSTSYADSVKGLFTISRDNAKNTVYLQMNSLKPEETAVYYCNARNQAYYRVWGYRGDYWGQGTQVTVSS,low polyreactivity
4,QVQLVESGGGLVQAGGSLSLSCAASGRTFSANTMGWSRQAPGKERELVAAISKSGGSTYYADSVKGRFTISRDNAKNTVYLQMNSLKPEDTAVYYCAARTSGYWYSYGSWGQGTQVTVSS,high polyreactivity
5,QVQLVESGGGIVQAGGSLRLRCAASGFIFAVNAKGWYRQAPGKESELVAAISSSGTTNYADSVKGRFTISRDNAKNTVYLQMNSLKPEDTAVYYCNKRWRDKYPQYDYWGLGTQVTVSS,low polyreactivity
6,QVQLVESGGGLVQAGGSLRLSCAASGRIFSTYALGWYRQAPGKERELVAAISYSGASTYYADSVKGRFTISRDNAKNTVYLQIKSMKPEDTAVYYCAKATYPHEYDYWGQGTQVTVSS,low polyreactivity
7,QVQLVESGGGLVQAGGSLRLSCAASGFTFLYNAMGWYRQAPGKERELVAAIDSGGMTNYADSVKGRFTISRDNAKNTVYLQMKSLKPEDTAVYYCAARFTQYITSDDGHYYYWGQGTQVTVSS,low polyreactivity
8,QVQLVESGGGLVQAGGSLRVSCAASGRTFYRKAMGWYRHAPGKERSLVAAISSGGSTTYADSVKGRFTISRDNAKNTVYLQMISLKPEDTAVYYCAARSHAGSVCPRLKEYDFWGQGTQVTVSS,low polyreactivity
9,QVHLVESGGGLVQAGGSLRLSFAASGRIFWDNAMGWYRQAHGKERELVAAISDSVVITYYADSVKGRFTISRDNAKNTVYLQMNSLKPEDTAVYYCAADKRGTVYLSSFWMDYWGQGTQVTVSS,low polyreactivity
10,QDQLVESGGGLLQAGGILRLRCAASGSILNYYAMGWYIQAPGKERELVAAISSSDGRTYYAYSEKGRFTISRDNAKNTVYLQMNSLKPEDSAVYYCAAEGTYSYSSWYEYWGQGTQVTLSS,high polyreactivity
11,QVQLVQSGGGLVQAGGSLRLSCAASGYTFYVNTMGWYRKAPGKERELVAVISSGGRTNYADSVKGRFTISRDNAKNTVYLQMNSLKPEDTAVYYCAAIGWRTRYRFEYWGIGTQVTVSS,high polyreactivity
12,QVQLVESGGGLVQAGGSLRLSCAASGNTFEDYAMGWYRQAPGKERELVAAINSGGSTNYADSVKGRFTISRDNAKNTVYLQMNSLKPEDTAVYYCAAEPGEGFDYWGQGTQVTVSS,low polyreactivity
13,QVQLVESGGGLVQAGGSLRLSCAASGSIFKTNAMGWYRQAPRKERELVAGISNVGSTNYADSVKGRFTISRDNAKNTVYLQMNSLKPEDTAVYYCAAPYTSQTIPDYVRYFIEYDYWGQATQVTVSS,low polyreactivity
14,QVQLVESGGGLVQAGGRLRLSCPASGRTFPPYAMGWYRQAPGKERELVGAISRRAGTTYYADSVKGRFTISRDNAKNTVYLQMNSLKPEDTAVYYCAALTESSSYGYWGLGTQVTVSS,low polyreactivity
15,QVQLVESGGGLVQAGGSLRLICAASGSIFWGYAIGWFRPAPGKERELVAGITATGGSTYYADSVKGRFTISRDNAKNTVYLPMNSLKPEDTAVYYCAAEHGRLATYTWWVIYDYWGHGTQVTVSS,low polyreactivity
16,QVQHVESGGGLDQAARSLRLICAASGSIFTDNGMGWYRQAPGKERELVAAISWRGGTYYADSVKGRFTISRDNAKNSVYLQMNSLKPEDTAVYYCNADPEAEGNFEYYYWGQGTQVTVSS,low polyreactivity
17,QVQLVESGGGLVQAGGSLRLSCAASGFTFKYYTMGWYRQAPGKERELVAAISKSGDITYYADSVKGRFTISRDNAKNTVYLQMNSLKPEDTAVYYCAAVGRVSYNRFDYWGQGTQVTVSS,high polyreactivity
18,QVQLVESGGGLVQAGGSLRLSCAASGSIFYRNAMGWYRQAPGKERELVAAISASGGSTYYADSVKGRFTISRDNAKNTVYLQMNSLNPEDTAFYYCAVEYRKSRSYYPYYYWGQGTQVTVSS,high polyreactivity
19,QVQLVESGGGLVQAGGSLRLSCAASGRTFIVYAMGWYRQAPGKERELVAAITTSLGRTYYADSVKGRFTISRDNAKNTVYLQMNSLKPEDTAVYYCAADRLDGYSEYYYWGQGTQVTVSS,low polyreactivity
20,QVQLVESGGGLVQAGGSLRLSCAASGIIFYDYAMGWYRQAPGKERELVAAITSGGSTNYADSVKGRFTISRDNAKNTVYLQMNSLKPEDTAVYYCAATYWSWISLRFYWGQGTQVTVSS,low polyreactivity
21,QVQLVESGGGLVQAGGSLRLSCAASGITFPSYVMGWYRQAPGKEREFVAAITGSAGSTYYADSVKGRFTISRDNAKNTVYLQMNSLKPEDTAVYYCAARVRYVNPKYYYWGQGTQVTVSS,high polyreactivity
